Earlier results as cited in PMC5650667.

What was measured:
RXFP4 (Homo sapiens) = RXFP4 (Homo sapiens) (UniProt Q8TDU9)
[1] = molecular target: TRH1 receptor (Homo sapiens) (UniProt P34981); assay: radioligand binding
RXFP2 (Homo sapiens) = RXFP2 (Homo sapiens) (UniProt Q8WXD0)
UniProt Q8WXD0, sequence (Q8WXD0 whole entry): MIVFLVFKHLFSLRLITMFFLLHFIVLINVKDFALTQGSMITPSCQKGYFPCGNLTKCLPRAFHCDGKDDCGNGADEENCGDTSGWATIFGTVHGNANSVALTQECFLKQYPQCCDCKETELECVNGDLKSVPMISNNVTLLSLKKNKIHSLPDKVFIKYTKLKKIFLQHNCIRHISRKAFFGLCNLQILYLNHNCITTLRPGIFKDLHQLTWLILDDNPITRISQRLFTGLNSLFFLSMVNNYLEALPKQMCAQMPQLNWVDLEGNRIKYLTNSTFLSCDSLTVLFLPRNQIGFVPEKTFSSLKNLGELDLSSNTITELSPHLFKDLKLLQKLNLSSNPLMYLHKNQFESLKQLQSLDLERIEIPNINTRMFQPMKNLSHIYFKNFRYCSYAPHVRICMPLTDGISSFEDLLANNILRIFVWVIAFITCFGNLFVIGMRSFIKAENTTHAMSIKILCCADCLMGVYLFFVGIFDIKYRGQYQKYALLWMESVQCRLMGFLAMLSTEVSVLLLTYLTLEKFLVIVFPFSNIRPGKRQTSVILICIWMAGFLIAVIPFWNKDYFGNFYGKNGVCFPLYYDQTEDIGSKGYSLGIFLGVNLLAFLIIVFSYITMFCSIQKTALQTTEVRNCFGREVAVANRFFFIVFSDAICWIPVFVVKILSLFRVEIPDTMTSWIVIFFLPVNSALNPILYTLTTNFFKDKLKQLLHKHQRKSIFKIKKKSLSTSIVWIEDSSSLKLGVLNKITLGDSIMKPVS

UniProt P34981, sequence (P34981 whole entry): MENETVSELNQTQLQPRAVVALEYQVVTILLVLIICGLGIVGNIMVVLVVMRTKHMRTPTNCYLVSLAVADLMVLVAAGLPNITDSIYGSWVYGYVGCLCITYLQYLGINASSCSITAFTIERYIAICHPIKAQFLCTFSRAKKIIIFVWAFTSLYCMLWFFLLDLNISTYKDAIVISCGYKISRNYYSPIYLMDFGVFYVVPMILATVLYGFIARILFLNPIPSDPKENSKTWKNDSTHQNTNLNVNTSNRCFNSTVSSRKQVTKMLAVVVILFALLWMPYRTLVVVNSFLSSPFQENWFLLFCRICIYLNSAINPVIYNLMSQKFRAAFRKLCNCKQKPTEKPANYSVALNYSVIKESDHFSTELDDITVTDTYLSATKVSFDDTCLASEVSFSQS
UniProt Q8TDU9, sequence (Q8TDU9 whole entry): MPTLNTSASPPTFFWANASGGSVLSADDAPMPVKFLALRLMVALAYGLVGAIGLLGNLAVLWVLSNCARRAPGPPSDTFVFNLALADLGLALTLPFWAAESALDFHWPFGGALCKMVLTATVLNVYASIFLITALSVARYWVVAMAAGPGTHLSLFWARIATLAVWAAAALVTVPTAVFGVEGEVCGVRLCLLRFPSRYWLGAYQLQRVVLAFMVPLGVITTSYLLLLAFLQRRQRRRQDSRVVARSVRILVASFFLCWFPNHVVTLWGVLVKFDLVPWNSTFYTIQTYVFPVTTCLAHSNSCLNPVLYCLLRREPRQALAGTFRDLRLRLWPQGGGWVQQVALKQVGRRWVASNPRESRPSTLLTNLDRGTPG

INSL5 (from UniProt Q9Y5Q6)
Kd (RXFP4 (Homo sapiens)): 5 nM

TRH (from UniProt P20396)
Kd [1]: 13 nM

INSL3 (from UniProt P51460)
Kd (RXFP2 (Homo sapiens)): 1 nM
